These results are taken from the nanobody polyreactivity screen of Harvey et al. (2022).

The data set can be described thus: yeast display, Sf9 membrane polyspecificity reagent, FACS + sequencing; frameworks hold sequencing errors. The essentials:
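Genes from sorted yeast were amplified by colony PCR, read by MiSeq 2 × 250 sequencing and filtered on CDR length. These cells carried a synthetic nanobody library in Saccharomyces cerevisiae BJ5465 and were sorted by FACS into low and high (top ~1%) gates on anti-HA and streptavidin fluorescence. Polyreactivity is labelled according to the gate of origin.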
As for “QVQLVESGGGLVQAGGSLRLSCAASGRTFGNNAMGWSRPAPGKERELVAAITASGGRTYYADSVKGRFTISRDNAKTTVYLQMNSLKPEDTAVYYCADGGPRVNGYGGYYWGQGTQVTVSS”, the “polyreactivity (PSR sort gate)” value was “high polyreactivity”.

In the case of “QVQLVESGGGLVQAGGSLRLSCAASGRTFGNYAMGWYRQAPGKERELVAAITSAGRTYYADSVKGRFTISRDNAKNTVYLQMNSLKPEDTAVYYCNANRVSPYYWGQGTQVTVSS”, the “polyreactivity (PSR sort gate)” value was “low polyreactivity”.

On to “QVQLVESGGGLVQAGGSLRLSCAASGRTFGNYAMGWYRQARGKERELVASISRRGGSTYYADSVKGRFTISRENAKNTVYLQMTSLKPDDTAVFYCATLRGRQRFGYDYWGQGTQVTVSS”, for which the “polyreactivity (PSR sort gate)” value is given as “high polyreactivity”.

Take “QVQLVESGGGLVQAGGSLRLSCAASGRTFGPYAMGWYRQAPGKEREFVAAMSYSGGSTYYADSVKGRFTISRDTAKNTVFLQINSLKPEDTAVYYCAVDIDSNSGTRDYWGQGTQVTVSS”: the “polyreactivity (PSR sort gate)” value is on record as “low polyreactivity”.

As for “QVQLVESGGGLVQAGGSLRLSCAASGRTFGQNAMGWYRPAPGKERELVAAISRGGSTYYADSVKGRFTISRDNAKNTVYLQMNSLKPEDTAVYYCAAAKKSGVYLRLNYWGQGTQVTVSS”, the “polyreactivity (PSR sort gate)” value was “high polyreactivity”.

In the case of “QVQLVESGGGLVQAGGSLRLSCAASGRTFGQNTMGWYRQAPGIERELVAAINWSGGSTYYADSVKGRFTISRDIAKNTVYVQMNSLKPEDTAVYYCAVRGYWGQGTQVTVSS”, the “polyreactivity (PSR sort gate)” value is reported as “low polyreactivity”.

With “QVQLVESGGGLVQAGGSLRLSCAASGRTFGQNTMGWYRQAPGKERELVATITSDGGDTYYADSVKGRFTISRDNAKNTVYLQMNSLKPEDTAVYYCKADYAGPKYVGYTFRSFTMDYWGQGTQVTVSS”, the “polyreactivity (PSR sort gate)” value was “low polyreactivity”.

Consider “QVQLVESGGGLVQAGGSLRLSCAASGRTFGRNAMGWYRQAPGKEREFVAAISYRGGSTYYADSVKGRFTISRDNAKNTVYLQMNSLKPEDTAVYYCAVRFSAPGYYYWGQGTQVTVSS”, for which the “polyreactivity (PSR sort gate)” value is reported as “high polyreactivity”.

For “QVQLVESGGGLVQAGGSLRLSCAASGRTFGRNAMGWYRQAPGKERELVAAISSSGTRTYYADSVKGRFTISRDNAKNTVYLQMNSLKPEDTAVYYCAVDTLRYKMDYWGQGTQVTVSS”, the “polyreactivity (PSR sort gate)” value was “low polyreactivity”.

As to “QVQLVESGGGLVQAGGSLRLSCAASGRTFGRNGMGWYRQAPGKERELVAAISIGDSTTYADSVKGRFTISRDNAKNTVYLQMNSLKPEDTAVYYCAAEIERYPVWEYRGKYDYWGQGTQVTVSS”, the “polyreactivity (PSR sort gate)” value is on record as “low polyreactivity”.

Take “QVQLVESGGGLVQAGGSLRLSCAASGRTFGRYAMGWYRKAPGKERELVAAISCSGGSTYYADSVKGRFTISRDNAKNTVYLQMNSLKPEDTAVYYCAADWRQGLWYGYYYWGQGTQVTVSS”: the “polyreactivity (PSR sort gate)” value is “low polyreactivity”.

As to “QVQLVESGGGLVQAGGSLRLSCAASGRTFGRYAMGWYRQAPGKERELVADITGGGSTNYADSVKGRFTISRDNAKNTVYFQMNSLKPEDTAVYYCNAGILSRWVRKYYYWGQGTQVTVSS”, the “polyreactivity (PSR sort gate)” value is given as “low polyreactivity”.

For “QVQLVESGGGLVQAGGSLRLSCAASGRTFGRYAMGWYRQAPGKERELVARIRTSGGRTYYADSVKGRFTISRDIAKNTVYLLMNSLNPEDTAVYYCGTSSQPWYYWSTQGDDFWGQGTQVSVSS”, the “polyreactivity (PSR sort gate)” value is on record as “low polyreactivity”.

In the case of “QVQLVESGGGLVQAGGSLRLSCAASGRTFGRYAMVWSRQAPGKERELVAAITRGGGSTYYADSVKGRFTISRDNAKYTVYLQMNSLKPEDTAVYYCAARNFRSPYGYDYWGQGTQVTVSS”, the “polyreactivity (PSR sort gate)” value is “high polyreactivity”.

“QVQLVESGGGLVQAGGSLRLSCAASGRTFGRYPMGCYRQAPGKERELVAAIRYSGSSTYYADSVKGRFTISRDNAKNTVYLQMYSLKPEDTAVYYCAKRYYGKDYWGQGSQVTVSS”: the “polyreactivity (PSR sort gate)” value is “high polyreactivity”.

With “QVQLVESGGGLVQAGGSLRLSCAASGRTFGSNAMGWYRQAPGKERELVAAISRVGSTYYADSVNGRFTISRDNAMNTVYLQMNSLKPEDTAVYYCPYDYWGQGTQVTVSS”, the “polyreactivity (PSR sort gate)” value is on record as “low polyreactivity”.

In the case of “QVQLVESGGGLVQAGGSLRLSCAASGRTFGSNAMGWYRQAPGKERELVAAITSGGGTYYADSVKGRFTISRDNAKNTVYLQMNSLKPEDTAVYYCNKLGTSFRRDYGSWGQGTQVTVSS”, the “polyreactivity (PSR sort gate)” value is “low polyreactivity”.

Turning to “QVQLVESGGGLVQAGGSLRLSCAASGRTFGSYAMAWYRQAPGKERELVAAITWSGTGTYYADSVKGRFTISRDNAKNTVYLQMKSLKPEVTAVYYCAARYASGRRGEYWGQGTQVTVSS”, the “polyreactivity (PSR sort gate)” value was “high polyreactivity”.

Consider “QVQLVESGGGLVQAGGSLRLSCAASGRTFGSYAMGWNRPATRLERELVAAISDGGSTNYADSVKGRFTISRDNAKITVYLQMNSLTPEDTAVYYCAAEIFFAVFRFYYSGQGTQVTVSS”, for which the “polyreactivity (PSR sort gate)” value is given as “low polyreactivity”.

For “QVQLVESGGGLVQAGGSLRLSCAASGRTFGSYAMGWYRQAPGKERELVAGISWSGGITYYADSVKGRFTISRDNAKNTVYLQMNSLKPEDTAVYYCAASPRRDENAGRVRLYYWGQGTQVTVSS”, the “polyreactivity (PSR sort gate)” value is “high polyreactivity”.

On to “QVQLVESGGGLVQAGGSLRLSCAASGRTFGTNALGWYRQAPGKERELVASIDLSADSTYYADSVKGRFTISRDNAKKTVYLQMNSLKPEDTAVYYCNKDGYPWPPNLDYWGQGTQVTVSS”, for which the “polyreactivity (PSR sort gate)” value is “low polyreactivity”.

Consider “QVQLVESGGGLVQAGGSLRLSCAASGRTFGTNTMGWYRQAPGKERELVAAIRRGGGTNYADSVKGRFTISRDNAKNTVYLQMNSLKPEDTAVYYCAAVRWNTGVGYYYWGQGTQVTVSS”, for which the “polyreactivity (PSR sort gate)” value is on record as “high polyreactivity”.

As to “QVQLVESGGGLVQAGGSLRLSCAASGRTFGVNAMGWYRQAPGKEREFVAAITWSGGSTYYADSVKGRFTISRDNAKNTVYLQMISLKPEDTAVYYCAAVQWRYDGSFTGYGYWGQGTQVTVSS”, the “polyreactivity (PSR sort gate)” value is reported as “low polyreactivity”.

For the sequence “QVQLVESGGGLVQAGGSLRLSCAASGRTFGVNAMGWYRQAPGKERELVARIRVSGGRTYYADSVKGRFTISRDNAKNTVYLQMNSLKPEDTAVYYCNAGYTYNRVIWPYYYWGQGTQVTVSS”, the “polyreactivity (PSR sort gate)” value is “high polyreactivity”.

Turning to “QVQLVESGGGLVQAGGSLRLSCAASGRTFGVNAMGWYRQAPGKERELVATIRRGGSTYYADSVKGRFTISRDNAKNTVYLQMNSLKPEDTAVYYCNASHVTWNRKYDYWGQGTQVNVSS”, the “polyreactivity (PSR sort gate)” value was “low polyreactivity”.

As for “QVQLVESGGGLVQAGGSLRLSCAASGRTFGVYALGWYRQAPRKERELVAGIRWRGGSTYYADSVKGRFTISRDNAKNTVYLQMNSLKPEDTAVYYCAADVYLVKYDYWGQGTQVTVSS”, the “polyreactivity (PSR sort gate)” value is “low polyreactivity”.

As to “QVQLVESGGGLVQAGGSLRLSCAASGRTFGVYAMGWYRQAPGKERELVATIRTTGSTNYADSVKGRFTISRDNAKYTVYLQMNSVKTEDTAVYYCAARLRQSKYYPYTTFTYDYWGQGTQVTVSS”, the “polyreactivity (PSR sort gate)” value was “high polyreactivity”.

As to “QVQLVESGGGLVQAGGSLRLSCAASGRTFGVYAMGWYRQAPWKERELVAGIRWRGGSTYYADSVKGRFTISRDNAKNTVYLQMNSLKPEDTAVYYCAADVYLVKYDYWGQGTQVTVSS”, the “polyreactivity (PSR sort gate)” value was “low polyreactivity”.

Take “QVQLVESGGGLVQAGGSLRLSCAASGRTFGWNAMGWYRQAPGKERELVASIRYSGGTTYYADSVKGRFTISRDNAKNTVYLQMKSLKPEDTAVYYCNSAYYNTGATRPYGYGYWGQGTQVTVSS”: the “polyreactivity (PSR sort gate)” value is on record as “low polyreactivity”.

With “QVQLVESGGGLVQAGGSLRLSCAASGRTFGWNARGWYRQAPGKEKELVAAISWSGTNTYYADSVKGRFTISRDNAKNTVYLQMNSLKPEDTAVYYCAARDWTGSWNGYWSCEYNYWGQGTQVTGSS”, the “polyreactivity (PSR sort gate)” value is on record as “low polyreactivity”.
